In patent US7507412B2, “Glycoprotein VI fusion proteins” (Merck Patent GmbH, priority 2001, dated 2009):

T1: collagen type III (Homo sapiens, UniProt P02461)
T1 sequence (P02461 154-1221 limits assumed): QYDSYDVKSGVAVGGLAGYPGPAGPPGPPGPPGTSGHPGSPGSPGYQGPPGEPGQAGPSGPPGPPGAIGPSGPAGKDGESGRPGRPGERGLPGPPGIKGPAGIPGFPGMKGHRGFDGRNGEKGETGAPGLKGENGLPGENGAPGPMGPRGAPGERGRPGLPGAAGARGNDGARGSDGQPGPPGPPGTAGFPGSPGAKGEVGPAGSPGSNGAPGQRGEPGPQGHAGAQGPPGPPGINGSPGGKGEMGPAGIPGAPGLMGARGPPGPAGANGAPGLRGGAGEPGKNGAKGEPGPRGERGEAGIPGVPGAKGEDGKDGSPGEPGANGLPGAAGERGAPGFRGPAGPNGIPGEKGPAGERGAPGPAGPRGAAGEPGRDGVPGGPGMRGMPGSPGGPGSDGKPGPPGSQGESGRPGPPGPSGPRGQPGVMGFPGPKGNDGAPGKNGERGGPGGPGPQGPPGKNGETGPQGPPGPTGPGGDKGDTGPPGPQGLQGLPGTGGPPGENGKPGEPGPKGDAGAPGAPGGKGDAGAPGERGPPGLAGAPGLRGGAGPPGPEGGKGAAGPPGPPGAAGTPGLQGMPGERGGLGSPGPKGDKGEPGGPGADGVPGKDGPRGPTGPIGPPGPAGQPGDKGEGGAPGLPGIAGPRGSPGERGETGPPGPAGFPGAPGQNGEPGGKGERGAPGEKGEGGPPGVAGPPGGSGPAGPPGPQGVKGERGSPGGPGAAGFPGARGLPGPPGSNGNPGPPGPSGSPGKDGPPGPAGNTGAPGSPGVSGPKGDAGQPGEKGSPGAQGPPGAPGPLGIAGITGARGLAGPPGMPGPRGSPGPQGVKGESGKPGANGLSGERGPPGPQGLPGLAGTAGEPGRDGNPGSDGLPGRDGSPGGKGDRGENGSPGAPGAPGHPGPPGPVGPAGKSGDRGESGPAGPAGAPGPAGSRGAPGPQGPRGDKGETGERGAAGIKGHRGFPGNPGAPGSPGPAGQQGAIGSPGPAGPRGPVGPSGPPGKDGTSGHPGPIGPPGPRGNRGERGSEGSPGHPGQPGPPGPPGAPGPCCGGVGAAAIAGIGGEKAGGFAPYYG

T2: human collagen type III (Sigma) (human, UniProt P02461 154-1221, limits assumed)
T2 construct: Purified natural collagen immobilised on the chip (331 RU); also called Collagen type III (human)
T2 sequence (looked up): T1 sequence (P02461 154-1221 limits assumed)

B1: purified recombinant glycoprotein VI (receptor, UniProt Q9HCN6 21-269, looked up)
chain: QSGPLPKPSLQALPSSLVPLEKPVTLRCQGPPGVDLYRLEKLSSSRYQDQAVLFIPAMKRSLAGRYRCSYQNGSLWSLPSDQLELVATGVFAKPSLSAQPGPAVSSGGDVTLQCQTRYGFDQFALYKEGDPAPYKNPERWYRASFPIITVTAAHSGTYRCYSFSSRDPYLWSAPSDPLELVVTGTSVTPSRLPTEPPSPVAEFSEATAELTVSFTNEVFTTETSRSITASPKESDSPAGPARQYYTKGN
notes: also called GPVI; purified soluble GPVI

Legend:
collagen type III [1] = biological target: T1, collagen type III; assay: ELISA: GPVI-Fc binding at collagen-coated microtiter plates; details: HEPES binding buffer pH 7.4, FIG. 4
Text: GPVI-Fc, solved in HEPES buffer (pH 7.4) containing 1% BSA and 0.05% Tween 20, was allowed to bind at collagen-coated microtiter plates. The amount of collagen-bound GPVI-Fc was calorimetrically detected by an anti-Fc antibody conjugated with horse radish peroxidase. Non-specific binding was estimated by a collagen non-specific Fc fusion protein applied instead of GPVI-Fc. Data shown as mean (n=2).
In principle, collagen coated microtiter plates are used as a matrix and GPVI-Fc as the ligand. The detection of bound GPVI-Fc is carried out by an anti-Fc antibody conjugated with horse radish peroxidase which binds specifically at the Fc moiety. After addition of peroxidase substrate, the amount of bound GPVI-Fc is reflected by an increase in absorption.
The polystyrol microtiterplates are coated with 50 μl of 20 μg/ml collagen type III suspended in TRIS buffered saline pH 8.0 for 12 h. Non-bound collagen is removed by washing. Afterwards, free protein binding sites are blocked by 5% (w/v) milk powder and 0.05% (v/v) Tween® 20 both solved in HEPES buffer (pH 7.4).
GPVI-Fc, in a concentration range of 0.1-100 nM, is solved in binding buffer (HEPES, 1% (w/v) bovine serum albumin, 0.05% (v/v) Tween® 20, pH 7.4). […]
Fifty μl of GPVI-Fc solution are given into each well. […] Finally, the amount of bound GPVI-Fc is calorimetrically detected by the peroxidase reaction.

human platelets = assay: Collagen-induced platelet aggregation, determined turbidometrically; assay type: cell-based; details: GPVI-Fc added prior to collagen, 10 μg/ml collagen, FIG. 6
Protocol: Platelet aggregation is turbidometrically determined after the addition of 10 μg/ml collagen (control) and in the presence of different GPVI-Fc concentrations. Data are shown as means (n=4).
The therapeutic relevance for GPVI-antagonists to prevent collagen-induced thromboembolic complications is shown by a GPVI-Fc titration curve (FIG. 6). Briefly, stimulation of human platelets with collagen induces an aggregation within minutes. […] Therefore, collagen trapped by GPVI-Fc is no longer able to induce an aggregation of platelets. Considering the therapeutic relevance of GPVI receptor antagonism the following conclusion can be drawn from the results presented above: • (i) GPVI-Fc itself can be used as a drug to prevent collagen-induced thromboembolic complications. • (ii) Antagonism of the platelet GPVI receptor by low molecular drugs should prevent the collagen-induced aggregation.

collagen type III [2] = biological target: T1, collagen type III; assay: Binding of GPVI to collagen type III measured by surface plasmon resonance (BIAcore 3000); set-up: purchased Sigma
Text: The known interaction of GPVI to Collagen was used to develop a binding test with the BIAcore 3000. The binding of proteins to immobilized ligands can be monitored using the phenomenon of surface plasmon resonance (SPR). This technique can give results regarding the affinity and kinetics of interacting molecules in solution.
In this assay human collagen type III was immobilized on the sensor surface as stated in the methods and purified soluble GPVI was passed over the collagen surface.
(§1) Protein interactions were identified and characterized by SPR technology using the BIAcore® 3000 instrument (BIAcore®, Freiburg, Germany) and methodology (Johnsson and Lindqvist, 1992; Johnsson et al., 1991). Coupling reagents were used according to protocols developed by the supplier. Coupling to the CM 5 sensor chip was done via activated carboxylate groups to free amine groups of human collagen type III (Sigma®). The pH-scouting and the coupling chemistry was performed under standard conditions (Johnsson and Lindqvist, 1992; Johnsson et al., 1991). For coupling the collagen was diluted to 0.125 μg/ml into 10 mM acetate buffer pH 4.5, resulting in 331 RU immobilized material.
(§2) For the binding experiments purified recombinant glycoprotein VI was used. The protein was diluted into 20 mM Hepes, pH 7.4, 150 mM NaCl, 5 mM EDTA, 0.005% Tween® 20. All binding experiments were performed at 25° C. and performed in duplicates.
The titration with glycoprotein VI was performed at concentrations ranging from 0.2 μg/ml to 50 μg/ml.
Total protein concentrations were determined by the BCA method (Pierce) The kinetic of the interaction of GPVI with collagen can be observed in the sensorgram seen in FIG. 7. In the experiment increasing concentrations of purified GPVI were passed over the collagen type III surface.

[3] = biological target: T2, human collagen type III (Sigma); assay: SPR equilibrium analysis, assuming 75000 Da and fully active protein
Protocol: as §1, with “µg/ml” for “μg/ml”
as §2

[4] = biological target: T2, human collagen type III (Sigma); assay: SPR, BIAcore 3000, collagen type III immobilised, GPVI in solution, 25 C
Protocol: as §1, with “µg/ml” for “μg/ml”
as §2

| Molecule | concentration at which collagen-binding sites are completely occupied (saturation curve) (collagen type III [1]) | suppression of collagen-induced platelet aggregation (human platelets) | dissociation rate constant from the collagen surface (collagen type III [2]; 25° C.) [s⁻¹] | time until binding reaches saturation (collagen type III [2]; 25° C., GPVI 0.2-50 μg/ml) | half maximal concentration of saturation for the GPVI/collagen interaction (collagen type III [2]; equilibrium binding signal, non linear fit, 1:1 binding model, FIG. 8) [µg/mL] | Kd [3] [nM] | koff [4] [s⁻¹] |
| --- | --- | --- | --- | --- | --- | --- | --- |
| GPVI-Fc: Fusion of extracellular part of GPVI (aa 21 to 269), Cys-Gly-Arg linker and Fc of IgG1, encoded in KL74A | above 100 nM | concentration-dependent reduction of platelet-aggregation | – | – | – | – | – |
| B1 | – | – | 0.003 | about 200 seconds | 9 | ~120 | 0.003 |
